# Target: purified recombinant full-length PNKP (human) (UniProt Q96T60)
3'-phosphatase activity of PNKP (50 fmol) in vitro with 25-400 fmol ATXN3-Q29: stimulation [fold],3'-phosphatase activity of PNKP (50 fmol) in vitro with 50-200 fmol ATXN3-Q72: decrease [fold],Substance
4,–,ATXN3-Q29 (WT with 29 polyQ repeats) (from UniProt P54252 1-361) (natural protein)
–,3.5,ATXN3-Q72 (the pathological form with 72 polyQ repeats) (from UniProt P54252 1-361) (natural protein)
